Measured values published in patent US20160251695.

T1: α-fructosyl-valyl-histidyl-leucyl-threonyl-proryl-glutamic acid
T1 chain: VHLTPE

T2: α-fructosyl-valyl-histidine
T2 chain: VH


Experiments:
[1] = target: T1, α-fructosyl-valyl-histidyl-leucyl-threon …; settings: for αF6P oxidation activity: scale: relative value
[2] = target: T2, α-fructosyl-valyl-histidine

Sequence of hemoglobin A1c, P68871 (P68871 2-147, chain 1 of 2): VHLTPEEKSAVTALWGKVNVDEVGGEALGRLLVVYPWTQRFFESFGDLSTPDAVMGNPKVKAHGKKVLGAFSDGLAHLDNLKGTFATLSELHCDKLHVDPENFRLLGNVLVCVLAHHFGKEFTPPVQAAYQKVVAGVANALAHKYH
Sequence of hemoglobin A1c, P68871 (chain, as listed by the source, chain 2 of 2): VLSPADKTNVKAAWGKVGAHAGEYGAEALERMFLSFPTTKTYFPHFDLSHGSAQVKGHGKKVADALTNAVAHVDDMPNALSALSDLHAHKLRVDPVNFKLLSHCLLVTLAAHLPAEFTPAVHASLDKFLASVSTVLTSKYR

Protein	αF6P oxidation activity [1]	Specific activity (U/mg), 1 mM αF6P [1] [U/mg]	other results
amadoriase exhibiting 95% sequence identity with ketoamine oxidase derived from Curvularia clavata (protein) MAPSRANTSVIVVGGGGTIGSSTALHLVRSGYTPSNITVLDAYPIPSSQSAGNDLNKIMGIRLRNKVDLQLSLEARQMWREDDLFKEYFHNTGRLDCAHGEEGLADLRQAYQALLDANAGLEETTEWLDSEDEILKKMPLLSRDQIKGWKAVYSQDGGWLAAAKAINAIGEYLRAQGVKFGFGGAGSFKQPLLAEGVCIGVETVDGTRYYADKVVLAAGAWSPTLVELHEQCVSKAWVYGHIQLTPEEAAEYKNSPVVYNGDVGFFFEPNEHGVIKVCDEFPGFTRFKMHQPFGAKAPKRISVPRSHAKHPTDTIPDASEKSIRKAIATFLPKFTEKELFNRHLCWCTDTADAALLICEHPEWKNFVLATGDSGHSFKLLPNIGKHVVELLEGTLADDLAHAWRWRPGSGDALKSRRSAPAKDLADMPGWKHDDVVKSKL	0	–	–
Cc95FX-62D/63H/106K/110L/113K/353S (protein) MAPSRANTSVIVVGGGGTIGSSTALHLVRSGYTPSNITVLDAYPIPSSQSAGNDLNKIMGIDHRNKVDLQLSLEARQMWREDDLFKEYFHNTGRLDCAHGEEGLAKLRQLYQKLLDANAGLEETTEWLDSEDEILKKMPLLSRDQIKGWKAVYSQDGGWLAAAKAINAIGEYLRAQGVKFGFGGAGSFKQPLLAEGVCIGVETVDGTRYYADKVVLAAGAWSPTLVELHEQCVSKAWVYGHIQLTPEEAAEYKNSPVVYNGDVGFFFEPNEHGVIKVCDEFPGFTRFKMHQPFGAKAPKRISVPRSHAKHPTDTIPDASEKSIRKAIATFLPKFTEKELFNRHLCWCTDTADSALLICEHPEWKNFVLATGDSGHSFKLLPNIGKHVVELLEGTLADDLAHAWRWRPGSGDALKSRRSAPAKDLADMPGWKHDDVVKSKL	237	–	–
CFP-DH2 (protein) MTSNRADTRVIVVGGGGTIGSSTALHLVRSGYAPANITVLDTFPIPSAQSAGHDLNKIMGIDHRNKVNLQMSLEARQMWKEDELFQPFFHNTGRMDCEHTPKGIEKLKKLYQKLHDAGAGLEKTHAWLDNEDAILSKMPLLQRDQIQGWKAIWSQDGGWLAAAKAINAIGQFLKERGVKFGFGGAGSFKQPLFDDEGTTCIGVETADGTKYYADKVVLAAGAWSPTLVDLEDQCCSKAWVYAHIQLTPEEAAKYKGCPVVYHGEFGFFFEPDEFGVIKVCDEFPGFSRFKEHQPYGAPSPKRISVPRSHAKHPTDTYPDASEVSIKKAIATFLPRFKDKPLFNRALCWCTDTADSTLLMCEHPKWKNFILATGDSGHSFKILPNVGKYVVELIEGRLPEEMAYQWRWRPGGDALKSRRAAPPKDLADMPGWKHD	–	5.3	ΔA at 751 nm against HbA1c concentration; cationic-surfactant-treated sample (Reagent G1 or G2) (hemoglobin A1c, P68871): In both cases where the sample was diluted with either Reagent G1 or Reagent G2, a good correlation was established between the HbA1c concentration and ΔA
CFP-T7-H1 (protein) MTSNRADTRVIVVGGGGTIGSSTALHLVRSGYAPANITVLDTFEIPSAQSAGHDLNKIMGIALRNKVDLQMSLEARQMWKEDELFQPFFHNTGRMDCEHTPEGIEDLKKQYQALHDAGAGLEKTHAWLDNEDEILSKMPLLQRDQIQGWKAIWSQDGGWLAAAKAINAIGQFLKERGVKFGFGGAGSFKQPLFDDEGTTCIGVETADGTKYYADKVVLAAGAWSPTLVDLEDQCCSKAWVYAHIQLTPEEAAEYKGVPVVYNGEFGFFFEPDEFGVIKVCDEFPGFSRFKEHQPYGAPSPKRISVPRSHAKHPTDTYPDASEVSIKKAIATFLPRFQDKELFNRALCWCTDTADAALLMCEHPKWKNFILATGDSGHSFKILPNVGKYVVELIEGRLPEEMAYQWRWRPGGDALKSRRAAPPKDLADMPGWKHDPKL	0.0316	–	αFVH oxidation activity [2]: exhibited αF6P oxidation activity, in addition αFV oxidation activity and αFVH oxidation activity
CFP-T7-H21 (protein) MTSNRADTRVIVVGGGGTIGSSTALHLVRSGYAPANITVLDTFEIPSAQSAGHDLNKIMGIDLRNKVDLQMSLEARQMWKEDELFQPFFHNTGRMDCEHTPEGIEKLKKLYQRLHDAGAGLEKTHAWLDNEDEILSKMPLLQRDQIQGWKAIWSQDGGWLAAAKAINAIGQFLKERGVKFGFGGAGSFKQPLFDDEGTTCIGVETADGTKYYADKVVLAAGAWSPTLVDLEDQCCSKAWVYAHIQLTPEEAAEYKGVPVVYNGEFGFFFEPDEFGVIKVCDEFPGFSRFKEHQPYGAPSPKRISVPRSHAKHPTDTYPDASEVSIKKAIATFLPRFQDKELFNRALCWCTDTADAALLMCEHPKWKNFILATGDSGHSFKILPNVGKYVVELIEGRLPEEMAYQWRWRPGGDALKSRRAAPPKDLADMPGWKHDPKL	20.8	0.795	Specific activity (U/mg), 1 mM αFVH [2]: 4.05 U/mg
CFP-T7-H4 (protein) MTSNRADTRVIVVGGGGTIGSSTALHLVRSGYAPANITVLDTFEIPSAQSAGHDLNKIMGIALRNKVDLQMSLEARQMWKEDELFQPFFHNTGRMDCEHTPEGIEDLKKYYQALHDAGAGLEKTHAWLDNEDEILSKMPLLQRDQIQGWKAIWSQDGGWLAAAKAINAIGQFLKERGVKFGFGGAGSFKQPLFDDEGTTCIGVETADGTKYYADKVVLAAGAWSPTLVDLEDQCCSKAWVYAHIQLTPEEAAEYKGVPVVYNGEFGFFFEPDEFGVIKVCDEFPGFSRFKEHQPYGAPSPKRISVPRSHAKHPTDTYPDASEVSIKKAIATFLPRFQDKELFNRALCWCTDTADAALLMCEHPKWKNFILATGDSGHSFKILPNVGKYVVELIEGRLPEEMAYQWRWRPGGDALKSRRAAPPKDLADMPGWKHDPKL	0.0341	–	–
CFP-T7-62D (protein) MTSNRADTRVIVVGGGGTIGSSTALHLVRSGYAPANITVLDTFEIPSAQSAGHDLNKIMGIDLRNKVDLQMSLEARQMWKEDELFQPFFHNTGRMDCEHTPEGIEDLKKQYQALHDAGAGLEKTHAWLDNEDEILSKMPLLQRDQIQGWKAIWSQDGGWLAAAKAINAIGQFLKERGVKFGFGGAGSFKQPLFDDEGTTCIGVETADGTKYYADKVVLAAGAWSPTLVDLEDQCCSKAWVYAHIQLTPEEAAEYKGVPVVYNGEFGFFFEPDEFGVIKVCDEFPGFSRFKEHQPYGAPSPKRISVPRSHAKHPTDTYPDASEVSIKKAIATFLPRFQDKELFNRALCWCTDTADAALLMCEHPKWKNFILATGDSGHSFKILPNVGKYVVELIEGRLPEEMAYQWRWRPGGDALKSRRAAPPKDLADMPGWKHDPKL	–	0.018	Specific activity (U/mg), 1 mM αFVH [2]: 1.62 U/mg; specific activity on αF6P, fold over PnFX (Comparative Example 3) [1]: 2 times (Amadoriase 26/Comparative Example 3)
CFP-T7-H3 (protein) MTSNRADTRVIVVGGGGTIGSSTALHLVRSGYAPANITVLDTFEIPSAQSAGHDLNKIMGIALRNKVDLQMSLEARQMWKEDELFQPFFHNTGRMDCEHTPEGIEDLKKFYQALHDAGAGLEKTHAWLDNEDEILSKMPLLQRDQIQGWKAIWSQDGGWLAAAKAINAIGQFLKERGVKFGFGGAGSFKQPLFDDEGTTCIGVETADGTKYYADKVVLAAGAWSPTLVDLEDQCCSKAWVYAHIQLTPEEAAEYKGVPVVYNGEFGFFFEPDEFGVIKVCDEFPGFSRFKEHQPYGAPSPKRISVPRSHAKHPTDTYPDASEVSIKKAIATFLPRFQDKELFNRALCWCTDTADAALLMCEHPKWKNFILATGDSGHSFKILPNVGKYVVELIEGRLPEEMAYQWRWRPGGDALKSRRAAPPKDLADMPGWKHDPKL	0.0298	–	–
CFP-T7-H20 (protein) MTSNRADTRVIVVGGGGTIGSSTALHLVRSGYAPANITVLDTFEIPSAQSAGHDLNKIMGIDLRNKVDLQMSLEARQMWKEDELFQPFFHNTGRMDCEHTPEGIEKLKKLYQKLHDAGAGLEKTHAWLDNEDEILSKMPLLQRDQIQGWKAIWSQDGGWLAAAKAINAIGQFLKERGVKFGFGGAGSFKQPLFDDEGTTCIGVETADGTKYYADKVVLAAGAWSPTLVDLEDQCCSKAWVYAHIQLTPEEAAEYKGVPVVYNGEFGFFFEPDEFGVIKVCDEFPGFSRFKEHQPYGAPSPKRISVPRSHAKHPTDTYPDASEVSIKKAIATFLPRFQDKELFNRALCWCTDTADAALLMCEHPKWKNFILATGDSGHSFKILPNVGKYVVELIEGRLPEEMAYQWRWRPGGDALKSRRAAPPKDLADMPGWKHDPKL	20.5	0.85	Specific activity (U/mg), 1 mM αFVH [2]: 4.28 U/mg; αF6P oxidation activity ratio (relative value (CFP-T7-H20 = 100)) [1]: 100
PnFX-62D/106K/110L/113K (protein) MAPSRANTSVIVVGGGGTIGSSTALHLVRSGYTPSNVTVLDAYPIPSSQSAGNDLNKIMGVDLRNPVDLQLALEARQMWNEDELFKKFFHNTGRLDCAHGEKDIAKLKSLYQKLVDAGLDATNEWLDSEDEILKRMPLLSRDQIKGWKAIFSKDGGWLAAAKAINAVGEYLRDQGVRFGFYGAGSFKAPLLAEGVCIGVETVDGTRYYADKVVLAAGAWSPTLVELHEQCVSKAWVYGHIQLTPEEAARYKNSPVVYNGDVGFFFEPNEHGVIKVCDEFPGFTRFKMHQPFGAKAPKRISVPRSHAKHPTDTIPDASDVSIRRAIATFMPQFKNKKMFNQAMCWCTDTADAALLICEHPEWKNFVLATGDSGHSFKLLPNIGKHVVELLEGTLADDLAHAWRWRPGSGDALKSRRSAPAKDLADMPGWNHDKPRANL	–	0.125	specific activity on αF6P, fold over PnFX before mutation [1]: specific activity on αF6P was elevated by 13.7 fold
PnFX-62D/63H/106K/110L/113K/351S (protein) MAPSRANTSVIVVGGGGTIGSSTALHLVRSGYTPSNVTVLDAYPIPSSQSAGNDLNKIMGVDHRNPVDLQLALEARQMWNEDELFKKFFHNTGRLDCAHGEKDIAKLKSLYQKLVDAGLDATNEWLDSEDEILKRMPLLSRDQIKGWKAIFSKDGGWLAAAKAINAVGEYLRDQGVRFGFYGAGSFKAPLLAEGVCIGVETVDGTRYYADKVVLAAGAWSPTLVELHEQCVSKAWVYGHIQLTPEEAARYKNSPVVYNGDVGFFFEPNEHGVIKVCDEFPGFTRFKMHQPFGAKAPKRISVPRSHAKHPTDTIPDASDVSIRRAIATFMPQFKNKKMFNQAMCWCTDTADSALLICEHPEWKNFVLATGDSGHSFKLLPNIGKHVVELLEGTLADDLAHAWRWRPGSGDALKSRRSAPAKDLADMPGWNHDKPRANL	–	0.667	–
